B1: IQUB (parent)
chain: CRNCINLQNEAQKRESFLKYKCLL
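Note: lentivirally expressed fusions sorted by FACS into six bins by GFP to DsRed ratio, PSI derived from sequencing read proportions per bin multiplied by bin number.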

In this data set the parent is B1. The data set is described as follows: protein stability index of a GFP-peptide fusion (GPS, HEK-293T) (PSI 1-6); higher = more stable. The conditions noted are these: c terminus: a fixed tail appended.
In the case of CRNCINLQNEAQPRESFLKYKCLL [K13P], the protein stability index turned out to be 2.02.
Take CRNCINLQNEAQKRHSFLKYKCLL [E15H]: the protein stability index came to 2.75.
Consider CRNCINLQNEAQKRWSFLKYKCLL [E15W], for which the protein stability index stood at 1.62.
The value for CRNCINLQNEAQKRKSFLKYKCLL [E15K] was 1.92; that for CRNCINLQNEAQKRSSFLKYKCLL [E15S] was 2.3; that for CRNCINLQNEAQKRTSFLKYKCLL [E15T] was 2.24.
Under CRNCINLQNEAQKRESILKYKCLL [F17I] stands 1.79.
For the variant CRNCINLQNEAQKRESKLKYKCLL [F17K], the protein stability index worked out at 2.33.
The value for CRNCINLQNEAQKRESDLKYKCLL [F17D] was 2.45.
For the variant CRNCINLQNEAQKRESMLKYKCLL [F17M], the protein stability index was 1.58.
The value for CRNCINLQNEAQKRESGLKYKCLL [F17G] was 2.84; that for CRNCINLQNEAQKRESHLKYKCLL [F17H] was 1.68.
The value for CRNCINLQNEAQKRESALKYKCLL [F17A] was 2.02.
The value for IRNCINLQNEAQKRESFLKYKCLL [C1I] was 1.41; that for WRNCINLQNEAQKRESFLKYKCLL [C1W] was 2.08; that for FRNCINLQNEAQKRESFLKYKCLL [C1F] was 1.5.
As for DRNCINLQNEAQKRESFLKYKCLL [C1D], the protein stability index worked out at 2.28.
Regarding CRNCINLQPEAQKRESFLKYKCLL [N9P], the protein stability index came out at 2.33.
Under CRNCINLQYEAQKRESFLKYKCLL [N9Y] stands 2.32.
Regarding CRNCINLQLEAQKRESFLKYKCLL [N9L], the protein stability index is 2.12.
The value for CRNCINLQVEAQKRESFLKYKCLL [N9V] was 1.53; that for CRNCINLQEEAQKRESFLKYKCLL [N9E] was 1.42.
Under CRNCINLQWEAQKRESFLKYKCLL [N9W] stands 2.72; under CRNCQNLQNEAQKRESFLKYKCLL [I5Q], 1.97; under CRNCKNLQNEAQKRESFLKYKCLL [I5K], 1.45.
Under CRNCHNLQNEAQKRESFLKYKCLL [I5H] stands 1.8; under CRNCRNLQNEAQKRESFLKYKCLL [I5R], 1.88; under CRNCPNLQNEAQKRESFLKYKCLL [I5P], 2.04.
With CRNCWNLQNEAQKRESFLKYKCLL [I5W], the protein stability index was 1.4.
Under CRNCSNLQNEAQKRESFLKYKCLL [I5S] stands 1.89; under CRNCINLQNEAQKRESFLKYKHLL [C22H], 2.18.
The value for CRNCINLQNEAQKRESFLKYKALL [C22A] was 1.58; that for CRNCINLQNEAQKRESFLKYKYLL [C22Y] was 1.84.
Under CRNCINLQNEAQKRESFLKYKKLL [C22K] stands 1.87.
Regarding CRNCINLQNEAQKRESFLKYKPLL [C22P], the protein stability index was found to be 2.25.
With CRNCINLQNEAQKRESFLKYKNLL [C22N], the protein stability index is 1.49.
The value for CRNCINLQNEAQKRESFLKYKDLL [C22D] was 2.46.
Under CRNCINLQNEAQKRESFLKYKTLL [C22T] stands 1.41.
The value for CRNCINLQNEAQKRESFLKYKRLL [C22R] was 1.3; that for CRNCINLQNEAQKRESFLKYKSLL [C22S] was 1.65.
Consider CRNCINLQNEAQKRESFLKYKCEL [L23E], for which the protein stability index turned out to be 1.75.
Under CRNCINLQNEAQKRESFLKYKCFL [L23F] stands 2.53; under CRNCINLQNEAQKRESFLKYKCHL [L23H], 1.6.
As to CRNCINLQNEAQKRESFLKYKCGL [L23G], the protein stability index turned out to be 2.03.
CRNCINLQNEAQKRESFLKYKCPL [L23P]: the protein stability index turned out to be 2.69.
As for CRNCINLQNEAQKRESFLKDKCLL [Y20D], the protein stability index was found to be 2.11.
In the case of CRNCINLQNEAQKRESFLKPKCLL [Y20P], the protein stability index was 1.89.
The value for CRNCINLQNEAQKRESFLKGKCLL [Y20G] was 3.06; that for CRNCINLQNEAQKRESFLKFKCLL [Y20F] was 1.66.
The value for CRNCINLQNEAQKRESFLKKKCLL [Y20K] was 2.46; that for CRNCINLQNEAQKRESFLKEKCLL [Y20E] was 2.17.
For the variant CRNCINLQNEAQKRESFLKYKCLF [L24F], the protein stability index was 1.82.
In the case of CRNCINLQNEAQKRESFLKYKCLM [L24M], the protein stability index came out at 1.79.
Consider CRNCINLQNEAQKRESFLKYKCLQ [L24Q], for which the protein stability index came out at 1.74.
Take CRNCINLQNEAQKRESFLKYKCLG [L24G]: the protein stability index came to 1.37.
In the case of CRNCINLQNMAQKRESFLKYKCLL [E10M], the protein stability index was 2.14.
The value for CRNCINLQNPAQKRESFLKYKCLL [E10P] was 1.37.
Under CRNCINLQNCAQKRESFLKYKCLL [E10C] stands 1.71; under CRNCINLQNNAQKRESFLKYKCLL [E10N], 1.94; under CRNCINLQNSAQKRESFLKYKCLL [E10S], 1.9.
Under CRNCINLQNIAQKRESFLKYKCLL [E10I] stands 1.35.
For CRNCINLLNEAQKRESFLKYKCLL [Q8L], the protein stability index turned out to be 3.13.
Regarding CRNCINLRNEAQKRESFLKYKCLL [Q8R], the protein stability index was 2.17.
As to CRNCINLHNEAQKRESFLKYKCLL [Q8H], the protein stability index stood at 2.08.
Under CRNCINLFNEAQKRESFLKYKCLL [Q8F] stands 1.59; under CRNCINLWNEAQKRESFLKYKCLL [Q8W], 2.46.
The value for CRNCINLPNEAQKRESFLKYKCLL [Q8P] was 1.68; that for CRNCINLANEAQKRESFLKYKCLL [Q8A] was 1.63; that for CRNCINCQNEAQKRESFLKYKCLL [L7C] was 2.13.
As for CRNCINQQNEAQKRESFLKYKCLL [L7Q], the protein stability index worked out at 1.75.
With CRNCINHQNEAQKRESFLKYKCLL [L7H], the protein stability index worked out at 1.55.
Take CRNCINAQNEAQKRESFLKYKCLL [L7A]: the protein stability index came to 1.75.
As to CRNCINKQNEAQKRESFLKYKCLL [L7K], the protein stability index stood at 1.95.
The value for CRNCINDQNEAQKRESFLKYKCLL [L7D] was 2.31.
The value for CRNCINSQNEAQKRESFLKYKCLL [L7S] was 2.29; that for CRNPINLQNEAQKRESFLKYKCLL [C4P] was 2.
Under CRNSINLQNEAQKRESFLKYKCLL [C4S] stands 1.51.
CRNGINLQNEAQKRESFLKYKCLL [C4G]: the protein stability index came out at 1.85.
With CRNEINLQNEAQKRESFLKYKCLL [C4E], the protein stability index turned out to be 1.41.
Under CRNRINLQNEAQKRESFLKYKCLL [C4R] stands 3.13; under CRNWINLQNEAQKRESFLKYKCLL [C4W], 1.41.
Turning to CRNHINLQNEAQKRESFLKYKCLL [C4H], the protein stability index came to 1.74.
The value for CRNTINLQNEAQKRESFLKYKCLL [C4T] was 1.69.
The value for CRNCINLQNEAQKRESFLNYKCLL [K19N] was 1.63; that for CRNCINLQNEAQKRESFLCYKCLL [K19C] was 3.27.
The value for CRNCINLQNEAQKRESFLEYKCLL [K19E] was 1.74.
As to CRNCINLQNEAQKRESFLFYKCLL [K19F], the protein stability index amounted to 2.54.
The value for CRNCINLQNEAQKRESFLRYKCLL [K19R] was 1.56; that for CRNCINLQNEAQKRESFLWYKCLL [K19W] was 1.01; that for CRNCINLQNEAQKRESFLGYKCLL [K19G] was 2.2.
Under CRNCINLQNEAQKRESFLAYKCLL [K19A] stands 1.46; under CRNCINLQNEAQKRESFLLYKCLL [K19L], 2.69; under CRNCINLQNEAQKRESFLHYKCLL [K19H], 1.68.
Under CRNCINLQNEAQKRESFLDYKCLL [K19D] stands 1.3.
